Laboratory results reported in US20220195054A1 (BERGEN TEKNOLOGIOVERF RING, published 2022).
Like-named read-outs stand apart in the source and are kept apart here.

Columns and labels:
[1] = target: T1, human Axl receptor on cells (MDA-MB-231, HeLa, LX2, Axl-positive cells) (human, UniProt P30530 26-894); assay: cell-based or functional assay
[2] = target: T2, recombinant human Axl-Fc chimera (rhAxl-Fc; R&D Systems, Cat. no. 154-AL) (human, UniProt P30530 26-451); assay: SPR (Biacore 3000, 25 C), rhAxl-Fc immobilised; ln2/koff
T2 construct: Bought construct; also called rhAxi-Fc; Hu-Axl-Fc; Fc part of the bought chimera not given

[3] = target: T2, recombinant human Axl-Fc chimera …; assay: SPR two-injection competition on immobilised Axl-Fc; first injection
[4] = target: T2, recombinant human Axl-Fc chimera …; assay: SPR (Biacore 3000, 25 C), rhAxl-Fc immobilised (190 RU), antibody as analyte, koff/kon
Experimental: (§1) The precise kinetic analysis was performed using BIA evaluation software and curve fitting according to 1:1 Langmuir binding model.

[5] = target: T2, recombinant human Axl-Fc chimera …; assay: SPR (Biacore 3000, 25 C), rhAxl-Fc immobilised (190 RU), antibody as analyte, 1:1 Langmuir
Experimental: as §1

[6] = target: T1, human Axl receptor on cells …; assay: flow cytometry on MDA-MB-231 cells, APC-conjugated anti-human IgG F(ab')2 detection
[7] = target: T1, human Axl receptor on cells …; assay: as above; remark: listed apart in the source
Experimental: (§2) The cells were collected by centrifugation at 200 g for 5 min. The antibody was diluted for total concentration in PBS containing 0.2% bovine serum albumin (BSA). Cell staining was performed using 200 μL of cell suspension comprising 200 000 cells for 30 min at room temperature. […] After two washing steps with PBS/0.2% BSA, the cells were resuspended in 200 μL PBS and kept on ice before analysis on Fortessa flow cytometer (BD Biosciences).

[8] = target: T1, human Axl receptor on cells …; assay: flow cytometry titration on MDA-MB-231 cells, Kd of the fitted curve, the axis of the fitted curves is Conc. (nM) [table under the graph]
Experimental: as §2

B1: chimeric monoclonal antibody 10G5 (mouse variable/human constant IgG1) (antibody, V domains shown)
VH: QVQLQQSGAELVRPGASVKLSCKASGYSFTDFYINWVRQRPGQGLEWIARIFPGGDNTYYNEKFKGKATLTAEESSSTAYIQLSSLTSEDSAVYFCARRGLYYAMDYWGQGISVTVSS
VL: DVLMTQTPLSLPVSLGDQASISCRSSQSLVHSNGIPYLHWYLQKPGQSPKLLIYRVSNRFSGVPDRFSGSGSGTDFTLKISRVEAEDLGVYFCSQGTHVPPTFGGGTKLEIK
notes: also called c10G5; C10G5
EC50 (pM), killing of MDA-MB-231 cells by antibody coupled to Saporin (FabFc-ZAP), XTT/PMS viability after 72 hrs [1]: 5.71 pM
Half-life (t1/2) [2]: 1.14 h
1st Response [3]: ~170
Kd [4]: 0.103 nM
koff [5]: 0.000169 s⁻¹
kon [5]: 1.64e+06 M⁻¹ s⁻¹
EC50 (read off the curve) [6]: ~0.2 nM
EC50 (read off the curve) [7]: ~0.1 nM
Kd [8]: 0.0922 nM
